# T1: TNFR1 (Homo sapiens, UniProt P19438)
# T1 chain: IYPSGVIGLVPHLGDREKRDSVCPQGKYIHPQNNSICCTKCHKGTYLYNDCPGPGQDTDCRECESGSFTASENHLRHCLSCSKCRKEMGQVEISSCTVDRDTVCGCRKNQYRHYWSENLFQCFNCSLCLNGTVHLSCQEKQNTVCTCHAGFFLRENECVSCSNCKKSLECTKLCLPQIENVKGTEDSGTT
# Biological target: T1, TNFR1
# Experiment: yeast display SC50
row,apparent Kd (screen),Binder
1,490 pM,R50D (designed binder) MTLQELLREEALRRAEAEAFRYALELLAEKFPEQKEYLLDLAEEIESQIDSLSGVDVEDVRKFLDKEWAWVKELLAEHPAELAEVEAARAARLAELRAEVEAKVAA
2,718 pM,A15R (designed binder) MTLQELLREEALRRREAEAFRYALELLAEKFPEQKEYLLDLAEEIESQIRSLSGVDVEDVRKFLDKEWAWVKELLAEHPAELAEVEAARAARLAELRAEVEAKVAA
3,539 pM,L96D (designed binder) MTLQELLREEALRRAEAEAFRYALELLAEKFPEQKEYLLDLAEEIESQIRSLSGVDVEDVRKFLDKEWAWVKELLAEHPAELAEVEAARAARLAEDRAEVEAKVAA
4,490 pM,S47N (designed binder) MTLQELLREEALRRAEAEAFRYALELLAEKFPEQKEYLLDLAEEIENQIRSLSGVDVEDVRKFLDKEWAWVKELLAEHPAELAEVEAARAARLAELRAEVEAKVAA
5,718 pM,L41M (designed binder) MTLQELLREEALRRAEAEAFRYALELLAEKFPEQKEYLLDMAEEIESQIRSLSGVDVEDVRKFLDKEWAWVKELLAEHPAELAEVEAARAARLAELRAEVEAKVAA
6,869 pM,A105T (designed binder) MTLQELLREEALRRAEAEAFRYALELLAEKFPEQKEYLLDLAEEIESQIRSLSGVDVEDVRKFLDKEWAWVKELLAEHPAELAEVEAARAARLAELRAEVEAKVTA
7,4830 pM,L3T (designed binder) MTTQELLREEALRRAEAEAFRYALELLAEKFPEQKEYLLDLAEEIESQIRSLSGVDVEDVRKFLDKEWAWVKELLAEHPAELAEVEAARAARLAELRAEVEAKVAA
8,490 pM,V57Y (designed binder) MTLQELLREEALRRAEAEAFRYALELLAEKFPEQKEYLLDLAEEIESQIRSLSGVDYEDVRKFLDKEWAWVKELLAEHPAELAEVEAARAARLAELRAEVEAKVAA
9,1160 pM,E99P (designed binder) MTLQELLREEALRRAEAEAFRYALELLAEKFPEQKEYLLDLAEEIESQIRSLSGVDVEDVRKFLDKEWAWVKELLAEHPAELAEVEAARAARLAELRAPVEAKVAA
10,956 pM,E86V (designed binder) MTLQELLREEALRRAEAEAFRYALELLAEKFPEQKEYLLDLAEEIESQIRSLSGVDVEDVRKFLDKEWAWVKELLAEHPAELAEVVAARAARLAELRAEVEAKVAA
11,539 pM,E99G (designed binder) MTLQELLREEALRRAEAEAFRYALELLAEKFPEQKEYLLDLAEEIESQIRSLSGVDVEDVRKFLDKEWAWVKELLAEHPAELAEVEAARAARLAELRAGVEAKVAA
12,3990 pM,L6W (designed binder) MTLQEWLREEALRRAEAEAFRYALELLAEKFPEQKEYLLDLAEEIESQIRSLSGVDVEDVRKFLDKEWAWVKELLAEHPAELAEVEAARAARLAELRAEVEAKVAA
13,539 pM,A94G (designed binder) MTLQELLREEALRRAEAEAFRYALELLAEKFPEQKEYLLDLAEEIESQIRSLSGVDVEDVRKFLDKEWAWVKELLAEHPAELAEVEAARAARLGELRAEVEAKVAA
14,539 pM,D65C (designed binder) MTLQELLREEALRRAEAEAFRYALELLAEKFPEQKEYLLDLAEEIESQIRSLSGVDVEDVRKFLCKEWAWVKELLAEHPAELAEVEAARAARLAELRAEVEAKVAA
15,539 pM,K72I (designed binder) MTLQELLREEALRRAEAEAFRYALELLAEKFPEQKEYLLDLAEEIESQIRSLSGVDVEDVRKFLDKEWAWVIELLAEHPAELAEVEAARAARLAELRAEVEAKVAA
16,1160 pM,E25W (designed binder) MTLQELLREEALRRAEAEAFRYALWLLAEKFPEQKEYLLDLAEEIESQIRSLSGVDVEDVRKFLDKEWAWVKELLAEHPAELAEVEAARAARLAELRAEVEAKVAA
17,1270 pM,A11M (designed binder) MTLQELLREEMLRRAEAEAFRYALELLAEKFPEQKEYLLDLAEEIESQIRSLSGVDVEDVRKFLDKEWAWVKELLAEHPAELAEVEAARAARLAELRAEVEAKVAA
18,1050 pM,E16D (designed binder) MTLQELLREEALRRADAEAFRYALELLAEKFPEQKEYLLDLAEEIESQIRSLSGVDVEDVRKFLDKEWAWVKELLAEHPAELAEVEAARAARLAELRAEVEAKVAA

row,apparent Kd (screen),Binder
1,5310 pM,E16K (designed binder) MTLQELLREEALRRAKAEAFRYALELLAEKFPEQKEYLLDLAEEIESQIRSLSGVDVEDVRKFLDKEWAWVKELLAEHPAELAEVEAARAARLAELRAEVEAKVAA
2,539 pM,A106L (designed binder) MTLQELLREEALRRAEAEAFRYALELLAEKFPEQKEYLLDLAEEIESQIRSLSGVDVEDVRKFLDKEWAWVKELLAEHPAELAEVEAARAARLAELRAEVEAKVAL
3,539 pM,E77W (designed binder) MTLQELLREEALRRAEAEAFRYALELLAEKFPEQKEYLLDLAEEIESQIRSLSGVDVEDVRKFLDKEWAWVKELLAWHPAELAEVEAARAARLAELRAEVEAKVAA
4,593 pM,E77V (designed binder) MTLQELLREEALRRAEAEAFRYALELLAEKFPEQKEYLLDLAEEIESQIRSLSGVDVEDVRKFLDKEWAWVKELLAVHPAELAEVEAARAARLAELRAEVEAKVAA
5,539 pM,L12I (designed binder) MTLQELLREEAIRRAEAEAFRYALELLAEKFPEQKEYLLDLAEEIESQIRSLSGVDVEDVRKFLDKEWAWVKELLAEHPAELAEVEAARAARLAELRAEVEAKVAA
6,490 pM,R21F (designed binder) MTLQELLREEALRRAEAEAFFYALELLAEKFPEQKEYLLDLAEEIESQIRSLSGVDVEDVRKFLDKEWAWVKELLAEHPAELAEVEAARAARLAELRAEVEAKVAA
7,539 pM,K103S (designed binder) MTLQELLREEALRRAEAEAFRYALELLAEKFPEQKEYLLDLAEEIESQIRSLSGVDVEDVRKFLDKEWAWVKELLAEHPAELAEVEAARAARLAELRAEVEASVAA
8,2050 pM,E86Y (designed binder) MTLQELLREEALRRAEAEAFRYALELLAEKFPEQKEYLLDLAEEIESQIRSLSGVDVEDVRKFLDKEWAWVKELLAEHPAELAEVYAARAARLAELRAEVEAKVAA
9,490 pM,P79H (designed binder) MTLQELLREEALRRAEAEAFRYALELLAEKFPEQKEYLLDLAEEIESQIRSLSGVDVEDVRKFLDKEWAWVKELLAEHHAELAEVEAARAARLAELRAEVEAKVAA
10,593 pM,V71M (designed binder) MTLQELLREEALRRAEAEAFRYALELLAEKFPEQKEYLLDLAEEIESQIRSLSGVDVEDVRKFLDKEWAWMKELLAEHPAELAEVEAARAARLAELRAEVEAKVAA
11,718 pM,V104R (designed binder) MTLQELLREEALRRAEAEAFRYALELLAEKFPEQKEYLLDLAEEIESQIRSLSGVDVEDVRKFLDKEWAWVKELLAEHPAELAEVEAARAARLAELRAEVEAKRAA
12,718 pM,M1C (designed binder) CTLQELLREEALRRAEAEAFRYALELLAEKFPEQKEYLLDLAEEIESQIRSLSGVDVEDVRKFLDKEWAWVKELLAEHPAELAEVEAARAARLAELRAEVEAKVAA
13,2730 pM,G54Y (designed binder) MTLQELLREEALRRAEAEAFRYALELLAEKFPEQKEYLLDLAEEIESQIRSLSYVDVEDVRKFLDKEWAWVKELLAEHPAELAEVEAARAARLAELRAEVEAKVAA
14,593 pM,V100P (designed binder) MTLQELLREEALRRAEAEAFRYALELLAEKFPEQKEYLLDLAEEIESQIRSLSGVDVEDVRKFLDKEWAWVKELLAEHPAELAEVEAARAARLAELRAEPEAKVAA
15,2480 pM,I49W (designed binder) MTLQELLREEALRRAEAEAFRYALELLAEKFPEQKEYLLDLAEEIESQWRSLSGVDVEDVRKFLDKEWAWVKELLAEHPAELAEVEAARAARLAELRAEVEAKVAA
16,1160 pM,R13N (designed binder) MTLQELLREEALNRAEAEAFRYALELLAEKFPEQKEYLLDLAEEIESQIRSLSGVDVEDVRKFLDKEWAWVKELLAEHPAELAEVEAARAARLAELRAEVEAKVAA
17,593 pM,W70F (designed binder) MTLQELLREEALRRAEAEAFRYALELLAEKFPEQKEYLLDLAEEIESQIRSLSGVDVEDVRKFLDKEWAFVKELLAEHPAELAEVEAARAARLAELRAEVEAKVAA

# Reference: article PMC12416549 (2024)
